Data on two substances can be found in article PMC7311918.

The target of experiment [1] is SARS-CoV S 2P trimer (S ectodomain, residues 12-1193) (SARS-CoV) (UniProt P59594). Nature of the experiment: SEC-MALS. (Size exclusion chromatography separates by hydrodynamic size, large species first.)
Experiment [2] addresses MERS-CoV S 2P trimer (S ectodomain, residues 19-1294) (MERS-CoV) (UniProt K9N5Q8). Nature of the experiment: SEC-MALS.

In experiment [1], “SARS-CoV S 2P trimer (S ectodomain, residues 12-1193) (from UniProt P59594 12-1193) (natural protein)” showed a stoichiometry N of 3.
As for “MERS-CoV S 2P trimer (S ectodomain, residues 19-1294) (from UniProt K9N5Q8 19-1294) (natural protein)”, in experiment [2], the stoichiometry N is 3.

The term stoichiometry N denotes a count of units in the complex or per binding partner.
